Data from paper PMC8807840.

What was measured:
[1] = target: A3A-CBE (A3A-nCas9-2xUGI)
[2] = target: A3Bctd-CBE (A3Bctd-nCas9-2xUGI)
[3] = target: A3Gctd-CBE (A3Gctd-nCas9-2xUGI)

B1: Ade1 (EBV-BORF2) (natural protein)
chain: MATTSHVEHELLSKLIDELKVKANSDPEADVLAGRLLHRLKAESVTHTVAEYLEVFSDKFYDEEFFQMHRDELETRVSAFAQSPAYERIVSSGYLSALRYYDTYLYVGRSGKQESVQHFYMRLAGFCASTTCLYAGLRAALQRARPEIESDMEVFDYYFEHLTSQTVCCSTPFMRFAGVENSTLASCILTTPDLSSEWDVTQALYRHLGRYLFQRAGVGVGVTGAGQDGKHISLLMRMINSHVEYHNYGCKRPVSVAAYMEPWHSQIFKFLETKLPENHERCPGIFTGLFVPELFFKLFRDTPWSDWYLFDPKDAGDLERLYGEEFEREYYRLVTAGKFCGRVSIKSLMFSIVNCAVKAGSPFILLKEACNAHFWRDLQGEAMNAANLCAEVLQPSRKSVATCNLANICLPRCLVNAPLAVRAQRADTQGDELLLALPRLSVTLPGEGAVGDGFSLARLRDATQCATFVVACSILQGSPTYDSRDMASMGLGVQGLADVFADLGWQYTDPPSRSLNKEIFEHMYFTALCTSSLIGLHTRKIFPGFKQSKYAGGWFHWHDWAGTDLSIPREIWSRLSERIVRDGLFNSQFIALMPTSGCAQVTGCSDAFYPFYANASTKVTNKEEALRPNRSFWRHVRLDDREALNLVGGRVSCLPEALRQRYLRFQTAFDYNQEDLIQMSRDRAPFVDQSQSHSLFLREEDAARASTLANLLVRSYELGLKTIMYYCRIEKAADLGVMECKASAALSVPREEQNERSPAEQMPPRPMEPAQVAGPVDIMSKGPGEGPGGWCVPGGLEVCYKYRQLFSEDDLLETDGFTERACESCQ
Binder B1 has a fold inhibition of base editing by Ade1 at the FANCF site, HEK293T cells (Fig. 2e) (A3Gctd-L7B CBE chimera) of 1.32 fold, a fold inhibition of base editing by Ade1 at the FANCF site, HEK293T cells (Fig. 2e) (A3Bctd-L7G CBE chimera) of 1.06 fold and a fold inhibition of base editing by Ade1 at the FANCF site, HEK293T cells (Fig. 2e) (A3Bctd-L1A CBE chimera) of 1.47 fold. It also gave a fold inhibition of base editing by Ade1 at the FANCF site, HEK293T cells (Fig. 2e) [1] of 1.06 fold, a fold inhibition of base editing by Ade1 at the FANCF site, HEK293T cells (Fig. 2e) (A3Gctd-L1L7B CBE chimera) of 5.66 fold and a fold inhibition of base editing by Ade1 at the FANCF site, HEK293T cells (Fig. 2e) [2] of 5.2 fold. For the same binder, the fold inhibition of base editing by Ade1 at the FANCF site, HEK293T cells (Fig. 2e) (A3A-L1B CBE chimera) was 3.26 fold, the fold inhibition of base editing by Ade1 at the FANCF site, HEK293T cells (Fig. 2e) [3] was 0.96 fold and the fold inhibition of base editing by Ade1 at the FANCF site, HEK293T cells (Fig. 2e) (A3Gctd-L1B CBE chimera) was 5.67 fold.
